Results published in the Immune Epitope Database (IEDB).
Blank lines part the entries; values can stand above or below the sequence they belong to.

Assays:
[1] = molecular target: HLA-A*31:01; assay: IEDB peptide-MHC binding, purified MHC/competitive/fluorescence; filed as Kd, often an IC50 or EC50 that approximates it; ≥ and ≤ were set here for values at or beyond the usual limits of such assays; details: source organism: Influenza A virus H3N2
[2] = molecular target: HLA-A*26:01; assay: IEDB peptide-MHC binding, purified MHC/direct/fluorescence; filed as Kd, often an IC50 or EC50 that approximates it; ≥ and ≤ were set here for values at or beyond the usual limits of such assays; details: source organism: Influenza A virus(A/swine/Shandong/fNY/2003(H9N2))
[3] = molecular target: HLA-B*27:05; assay: as above
[4] = molecular target: HLA-B*18:01; assay: as above; details: source organism: Influenza A virus (A/goose/Guangxi/1097/2004(H5N1))
[5] = molecular target: HLA-B*15:01; assay: as above
[6] = molecular target: HLA-A*69:01; assay: as above
[7] = molecular target: HLA-B*07:02; assay: as above
[8] = molecular target: HLA-A*24:02; assay: as above
[9] = molecular target: HLA-B*08:01; assay: as above
[10] = molecular target: HLA-B*58:01; assay: as above
[11] = molecular target: HLA-A*24:03; assay: as above; details: source organism: Influenza A virus (A/goose/Guangxi/1097/2004(H5N1))
[12] = molecular target: HLA-B*40:01; assay: as above
[13] = molecular target: HLA-A*01:01; assay: as above
[14] = molecular target: HLA-A*02:01; assay: as above
[15] = molecular target: HLA-B*08:02; assay: as above; details: source organism: Influenza A virus(A/swine/Shandong/fNY/2003(H9N2))
[16] = molecular target: HLA-A*03:01; assay: as above
[17] = molecular target: HLA-B*44:02; assay: as above
[18] = molecular target: HLA-A*11:01; assay: as above
[19] = molecular target: HLA-B*46:01; assay: as above
[20] = molecular target: HLA-B*15:01; assay: IEDB peptide-MHC binding, purified MHC/competitive/fluorescence; filed as Kd, often an IC50 or EC50 that approximates it; ≥ and ≤ were set here for values at or beyond the usual limits of such assays
[21] = molecular target: HLA-B*35:01; assay: as above
[22] = molecular target: HLA-B*07:02; assay: as above
[23] = molecular target: HLA-A*02:01; assay: IEDB peptide-MHC binding, purified MHC/competitive/fluorescence; ≥ and ≤ were set here for values at or beyond the usual limits of such assays; details: source organism: Zaire ebolavirus
[24] = molecular target: HLA-A*03:01; assay: as above; details: source organism: Zaire ebolavirus
[25] = molecular target: HLA-A*11:01; assay: as above; details: source organism: Zaire ebolavirus
[26] = molecular target: HLA-A*31:01; assay: IEDB peptide-MHC binding, purified MHC/direct/fluorescence; filed as Kd, often an IC50 or EC50 that approximates it; ≥ and ≤ were set here for values at or beyond the usual limits of such assays
[27] = molecular target: HLA-B*51:01; assay: IEDB peptide-MHC binding, purified MHC/competitive/fluorescence; filed as Kd, often an IC50 or EC50 that approximates it; ≥ and ≤ were set here for values at or beyond the usual limits of such assays
[28] = molecular target: HLA-B*07:02; assay: IEDB peptide-MHC binding, purified MHC/competitive/radioactivity; filed as Kd, often an IC50 or EC50 that approximates it; ≥ and ≤ were set here for values at or beyond the usual limits of such assays; details: source organism: Lassa virus GA391
[29] = molecular target: HLA-B*53:01; assay: as above; details: source organism: Lassa virus GA391
[30] = molecular target: HLA-B*54:01; assay: as above; details: source organism: Lassa virus GA391
[31] = molecular target: HLA-B*48:01; assay: IEDB peptide-MHC binding, purified MHC/direct/fluorescence; filed as Kd, often an IC50 or EC50 that approximates it; ≥ and ≤ were set here for values at or beyond the usual limits of such assays; details: source organism: Mammarenavirus lassaense
[32] = molecular target: HLA-B*57:01; assay: as above; details: source organism: Mammarenavirus lassaense
[33] = source organism: Influenza A virus (A/goose/Guangxi/1097/2004(H5N1))
[34] = source organism: Bacillus cereus G9241
[35] = source organism: Influenza A virus (A/swine/Bakum/5/95(H1N1))
[36] = source organism: Shigella flexneri 5 str. 8401
[37] = source organism: Escherichia coli O157:H7 str. Sakai
[38] = source organism: Mammarenavirus lassaense

Sequence: KYTSGRQEK
Kd [1]: 0.268 µM
Kd [2]: ≥ 20 µM
Kd [3, 33]: ≥ 20 µM
Kd [4]: ≥ 20 µM
Kd [5, 33]: ≥ 20 µM
Kd [6, 33]: ≥ 20 µM
Kd [7, 33]: ≥ 20 µM
Kd [8, 33]: ≥ 20 µM
Kd [9, 33]: ≥ 20 µM
Kd [10, 33]: ≥ 20 µM
Kd [11]: ≥ 20 µM
Kd [12, 33]: ≥ 20 µM
Kd [13, 33]: ≥ 20 µM
Kd [14, 33]: ≥ 20 µM
Kd [15]: ≥ 20 µM
Kd [16, 33]: ≥ 20 µM
Kd [17, 33]: ≥ 20 µM
Kd [18, 33]: ≥ 20 µM
Kd [19, 33]: ≥ 20 µM

Sequence: LFAGSIAAY
Kd [20, 34]: 0.19 µM
Kd [21, 34]: 0.0522 µM

Sequence: LPFSASIVF
Kd ([22]; source organism: Yersinia pestis CO92): 0.0888 µM

Sequence: MMVIFRLMR
IC50 [23]: ≥ 5440 µM
IC50 [24]: 0.183 µM
IC50 [25]: 0.0455 µM

Sequence: RGINDRNFW
Kd [26, 35]: ≥ 20 µM
Kd [3, 35]: ≥ 20 µM
Kd [5, 35]: ≥ 20 µM
Kd [6, 35]: ≥ 20 µM
Kd [7, 35]: ≥ 20 µM
Kd [8, 35]: ≥ 20 µM
Kd [9, 35]: ≥ 20 µM
Kd ([10]; source organism: Influenza A virus (A/swine/Bakum/1832/2000(H1N2))): 0.0415 µM
Kd [12, 35]: ≥ 20 µM
Kd [13, 35]: ≥ 20 µM
Kd [14, 35]: ≥ 20 µM
Kd [16, 35]: ≥ 20 µM
Kd [18, 35]: ≥ 20 µM
Kd [19, 35]: ≥ 20 µM

Sequence: RLLNLSGVN
IC50 [23]: 21.9 µM
IC50 [24]: 43.2 µM

Sequence: TPAQLSMLL
Kd [22, 36]: 0.215 µM
Kd [27, 36]: ≥ 20 µM

Kd [20, 37]: ≥ 20 µM
Kd [27, 37]: 2.92 µM
Kd [21, 37]: 0.0168 µM
Sequence: TPTHLSLAI

Sequence: VPHVIEEVM
Kd [27, 38]: ≥ 20 µM
Kd [21, 38]: 0.0002 µM
Kd [28]: 0.324 µM
Kd [29]: 1.09 µM
Kd [30]: 12.5 µM
Kd [26, 38]: ≥ 20 µM
Kd [3, 38]: ≥ 20 µM
Kd [5, 38]: ≥ 20 µM
Kd [6, 38]: ≥ 20 µM
Kd [9, 38]: 3.8 µM
Kd [10, 38]: ≥ 20 µM
Kd [12, 38]: ≥ 20 µM
Kd [13, 38]: ≥ 20 µM
Kd [14, 38]: ≥ 20 µM
Kd [16, 38]: ≥ 20 µM
Kd [31]: ≥ 20 µM
Kd [17, 38]: ≥ 20 µM
Kd [18, 38]: ≥ 20 µM
Kd [19, 38]: ≥ 20 µM
Kd [32]: ≥ 20 µM

Sequence: YVKQNTLKL
Kd ([22]; source organism: Influenza A virus): 0.0718 µM
